# The RNAGym collection of RNA variant scans (doi:10.1073/pnas.2313332121)
# Variants at the floor of the assay were thinned out.
# B1: TPR 5TU (parent)
# chain: GGAUCUUCUCGAUCUAACAAAAAAGACAAAUCUGCCACAAAGCUUGAGAGCAUCUUCGGAUGCAGAGGCGGCAGCCUUCGGUGGCGCGAUAGCGCCAACGUUCUCAACUAUGACACGCAAAACGCGUGCUCCGUUGAAUGGAGUUUAUCAUG
# Variants of: B1
# Experiment: polymerase ribozyme fitness, log enrichment relative to wild type (log ratio); higher = more active; in vitro selection for triplet polymerase activity
# Outline: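 Mutant libraries were PCR-built and transcribed for each subunit of a heterodimeric triplet polymerase ribozyme and selected for one round in triplicate at −7 °C, frozen, before gel excision of extended constructs and streptavidin-bead capture. Input and output libraries were Illumina-sequenced, keeping genotypes with ≥10 input reads and ≥1 read per output. Fitness is a logarithmic ratio of genotype to wild-type enrichment, in base 2, using inverse-variance-weighted replicate averages.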
row,Variant,polymerase ribozyme fitness (log ratio)
1,GGAUCUUCUCGAUCGAACAAAAAAGACAAAUCUGCCACAAAGCUUGGGAGCAUUUUCGGAUGCAGAGGCGGCAGCCUUCGGUGGCGCGAUAGGGCUAACGUUCCCAACUAUGACACGCAAAACGCGUGCUCCGUUGAAUGGAGUUUAUCGUG,-3.79
2,GGAUCUUCUCGAUCGAACAAAAAACACAAAUCUGCCACAACGCUUGAGAGCAUCGUCGGAUGCAGAGGCGGCAGCCUUCGGUGGCGCGAUAGCGCAAACGUUCUCAACUAUGACACGCAAAACGCGUGCUCCGUUGAACGGAGUUUAUCAUU,≤ -4.2
3,GGAUCUUCUCGAUCGAAAAAAAAAGACAAAUCUGCCACAAAGCUUGAGAGCAUAUUCGGAUGCAGAGGCGGCAGCCUUCGGUGGCGCGAUAGCACCAACGUUCUCAACUAUGACACCCAAAACGAGUGCUCCGUUGAAUGGAGUUUAUCAUG,-1.44
4,GGAUCUUCUCGAUCGAACAAAAAAGACAAAUCUGCCACAAAGCUUGAGAGCAACUUCGGAUGCAGAGGCGGCAGCCUUCGGUGGCGCGAUAGCGACAACGUUCUCAACUAUGACACGCAAAACGCGUGCUCCGUUGAAUGGAGUUUAUCAUG,-1.48
5,GGAUCUUCUCGAUCGAACAAAAAAGACAAAUCUGCCACAAAGCUUGAGAGCAUCUUCGGAUGCAGAGGCGGCAGCCUUCGGUGGCGCGAUAUCGCCAACGUUCUCAACUAUGACACGCAAAACGCGUGCUCCGUUGAAUGGAGUUUAUCAUG,-0.561
6,GGAUCUUCUCGAUCGAACAAAAAAGACAAAUCUGCCACUAAGCUUGAGACCAUCUUCGGAUGCAGAGGCCGCAGCCUUCGGUGGCGCUAUAGCGCCAACGUUCUUAACUAUGACACGCAAAACGCGUGCUCCGUUGAAUGGAGUUUAUCAUG,≤ -4.2
7,GGAUCUUCUCGAUCGAACAAAAAAGACAAAUCUGCCACAAAGCUUGAGAGCAUCUUCGGAUGCAGAGGCGGCAGCCUUCGGUGGCGCGAUAGCGCCAACGUUCUCAACUAUGACACGCAAAGCGCGUGCUCCGUUGAAUGGAGUUUAUCAUG,-1.2
8,GGAUCUUCUCGAUCGAACAAAAAUGACAAAUCUGCCACAAAGCUUGAGAGCAUCUUCGGAUGCAGAGGCGGCAGCCUUCGGUGGCGCGAUAGCGCCAACGUUCUCAACUAUGACACGCAAAACGCGUGCUCCGUUGAAUGGAGUGUCUCAUG,-3.02
9,GGAUCUUCUCGAUCGAACAAAAAAGACAAAACUGCCACAAAGCUUGAGAGCAUCAUCGGAUGCAGAGGCGGCAGCCUUCGGUGGCGCGAUAGGGCCAACGUUCUCAACUAUGACACGCAAAACGCGUGCUCCGUUGAAUGGAGUUUAUCAUG,-2.44
10,GGAUCUUCUCGAUCGAACAAAAAAGACAAAUCUGCCACAAAGCUUGAGAGCAUCUUCGGAUGCAGAGGCGGCAGCCUUCGGUGGAGCGAUAGCGCCAACGUUCUCAACUAUGACACGCAAAACGCGUGCUCCGUUGAAUGGAGUUUAUCAUG,-1.35
11,GGAUCUUCUCGAUCGAACAAAAAAGACAAAUCUGCCACAAAGCUUGAGAGCAUGUUCGGAUGCAGAGGCGGCAGCCUUCGAUGGCGCGAUAGCGUCAACGUUCUCAACUAUGACACGCAAAACGCGUGCUCCGUUGAAUGGAGUUUAUCAUG,-2.2
12,GGAUCUUCUCGAUCGAACAAAAAAGACAAAUCUGCUACAAAGCUUGCGAGCAUCUUCGGAUGCAGAGGCGGCAGCCUUCGGUGGCGCGAUAGCGCGAACGUUCUCAACUAUGACACGCAAAACGCGUGCUCCGUUGAAUGGAGCUUAUCAUG,≤ -4.2
13,GGAUCUUCUCGAUCGAACAAAAAAGACAAAUCUGCCACAAAGCUUGAGAGCAUCUUCGGAUGCAGAGGCGGUAGCCUUAGGUGGCGCGAUAGUUCAAACGUUCUCAACUAUGACACGCAAAACGCGUGCUCCGUUGAAUAGAGUUUAUCAUG,≤ -4.2
14,GGAUCUUCUCGAUCGAACAAAAAAGACAAAUCUGCCACAAAGCUUGAGAGCAUCUUCGGAUGCAGAGGCAGCAGCCUUCGGUGGCGUGACAGUGCCAACGUUCUCAACUAUGACACGCAAAACGCGUGCUCCGUUGAAUGGAGUUUAUCAUG,≤ -4.2
15,GGAUCUUCUCGAUCGAACAAAAAAGACAAAUCUGCCACAAAGCUUGAGAGCAUCUUUCGAUGCAGAGGCGGCAGCAUUCGGUGGCGCGAUAGCGCCAACGUUCUCAACUAUGACACGCAAAACGCGUGCUCCGUUGAAUGGAGUUUAUCAUG,-0.888
16,GGAUCUUCUCGAUCGAACAAAAAAGACAAAUCUGCCAUAAAGCUUGAGAGCAUCUUCGGAUGCAGAGGCGGCAGCCUUCGGUGGCGCGAUAGCGCCAACGUUCUCAACUAUGACACGCAAAACGCGUGCUCCGUUGAAUGGAGUUUAUCAUG,-0.133
17,GGAUCUUCUCGAUCGAACAAAAAAGACAAAUCUGCCACAAAGCUUGAGAGCAUCUUCGCAUGCAGAGGCGGCGGCCUUCGGUGGAGCGAUAGCGCCAACGUUCUCAACUAUGACACGCAAAACGCGUGCUCCGUUGAAUGGAGUUUAUCAUG,-2.7
18,GGAUCUUCUCGAUCGAACAAAAAAGACAAAUCUGCCACAAAGCUUGAGAGCAUCUUCGGAUGCAGAGGCGGCAGCCUUCGGUGGAGCGAUAGCGCCAACGUUCUCAACUAUGACACGCAAAAUGCGUGCUCCGUUGAAUGGAGUUUAUCAUG,-0.906
19,GGAUCUUCUCGAUCGAACAAAAAAGACAUAUCUGCCACAAAGCUUGAGAGCAUCUUCGGAUGCAGAGGCGGCAGCAUUCGGUAGCGCGAUAGCGCCAACGUUCUCAACUAUGACACGCAAAACGCGUGCUCCGUUGAAUGGAGUUUAUCAUG,≤ -4.2

row,Variant,polymerase ribozyme fitness (log ratio)
1,GGAUCUUCUCGAUCGAACAAAAAAGACUAAUCUGCCACAAAGCUUGAGCGCAUCUUCGGAUGCAGCGGCGGCAGCCUUAGGUGGCGCGAUAGCGCCUACGUUCUCAACUAUGACACGCAAAACACGUGCUCCGUUGAAUGGAGUUUAUCAUG,≤ -4.2
2,GGAUCUUCUCGAUCGAACAAAAAAGACAAAUCUGCCACAAAGCUUGAGAUCAUCUUCGGAUGCAGAGGCGGCAGCCUUCGGUGGCGCGAUAGAGCCAACGUUCUCAACUAUGACACGCAAAACGCGUGCUCCGUUGAAUGGAAUUUAUCAUG,-3.35
3,GGAUCUUCUCGAUCGUACAAAAAAGACAAAUCUGCCACAAAGCUUGAGAGCAUCUUCGGAUGCAGAGGCGGCAGCCUUCGGUGGCGCGAUAGCGUCAACGUUCUCAACUAUGACACGCAAUACGCGUGCGCCGUUGAAUGGAGUUUAUCAUG,≤ -4.2
4,GGAUCUUCUCGAUCGAACAAAAAAGACAAAUCUGCCUCAAAGCUUGAGAGCCUCUUCGGAUGCAGAGGCGGCAGCCUUCGGUGGCGCGACAGCGCCAACGUUCUCAACUAUGACACGCAAAACGCGUGCUCCGUUGAAUGGAGUUUAGCAUG,≤ -4.2
5,GGAUCUUCUCGAUCGAACAAAAAAGACAAAUCUGCCAUAACGCUUGAGAGCUUCUUCGUAUGCACAGGCGGCAGCCUUCGGUGGCGCGAUAGCGCCAACGUUCUCAACUAUGACACGCAAAACGCGUGCUCCGUUGAAUGAAGUUUAUCAUG,≤ -4.2
6,GGAUCUUCUCGAUCGAUCAAAAAAAACAAAUCUGCCACAAAGCUUGAGAGCAUCUUCGGAGGCAGAGGCGGCAGCCUUCGGUGGCGCGAUAGGGCCAACGUUCUCAACUAUGACACGCAAAACGCGUGCUCCGUUGAAUUGAGUUUAUCAUG,≤ -4.2
7,GGAUCUUCUCGAUCGAACAAAAAAGACAAAUCUGCCACAAAGCUUGAGAGCAUCUUCGGAUGCAGAGGCGGCAGCCUUCGGUGGCGCGAUAGCGCCAACGUUGUCAACUAUGACACGCAAAACGCGUGCUCCGUUGAAUGGAGUUUAUCAGG,≤ -4.2
8,GGAUCUUCUCGAUCGAACAAAAAAGACAUAUCUGCCACAAAGCUUGAGAGCAUCUUCGGAUGCAGAGGCGGCAGGCUUCGGUGGCGGUAUAGCGCCAACGUUCUCAACUAUGACACGCGAAACGCGUGCUCCGUUGAAUGGAGUUUAUAAUG,≤ -4.2
9,GGAUCUUCUCGAUCGAACAAAAAAGACAAAUCUGCCUCAAAGCUUGAGAGCAUCUAAGGAUGCAGAGGCGGCAGCCUUCGGUGGCGCGAUAGCGCCAACGUUCUCAACUAUGACACGCAAAAUGCGUGCUCCGUUGAAUGGAGUUUAUCAUG,-1.55
10,GGAUCUUCUCGAUCGAACAAAAAAGACAAAUCUGCCACAAAGUUUGAGAGCAUCUUAGGAUGCAGAGGCGGCAGCCUUCGGUGGGGCGAUAGCGCCAACGUUCUCCACUAUGACACGCAAAACGCGUGCUCCGUUGAAUGGAGUUUAUCAUG,≤ -4.2
11,GGAUCUUCUCGAUCGAACAAAAAGGACAAAUCUGUCACAAAGCUUGAGAGCAUCAUCGGAUGCAGAGGCGGCAGCCGUCGGUGGCGCGAGAGCACCUACGUUCUCAACUAUGACACGCAAAACGCGUGCUCCGUUGAAUUGAGUUUAUCAUG,≤ -4.2
12,GGAUCUUCUCGAUCGAACAAAAAAGACAAAUCUGCCACAACGCUUGAGAGCAUCUUCGGAUGCAGAGGCGGCAGCCUUCGGUGGCGCGAUAGUGCCAACGUUCUCAACUAUGACACGCAAAACGCGUGCUCCGUUGAAUGGAGUUUAUCAUG,-1.93
13,GGAUCUUCUCGAUCGAACAAAAAAGACAAAUCUGCCACAAAGCUUGAGAGCAUCUUCGAAUGCAGAGGCGGCAGCCUUCGGUGGCGCAAUAGCGCCAACGUUCUCAACUAUGACACGCAAAACGCGUGCUCUGUUGAAUGGAGUUUAUCAUG,≤ -4.2
14,GGAUCUUCUCGAUCGAACAAGAAAGACAAAUCUGCCACAAAGCUUGAGAGCAUCUUCGGAUGCAGAGGCGGCAGCCUUCGGUGGCGCGAUAGCGCCAACGUUCUCAACUAUGACACGCAAAACGCGUGCUCCGUCGAAUGGAGUUUAUCAUG,-2.43
15,GGAUCUUCUCGAUCGAACAAAAAAGACAAAUCUGCCACAAAGCUUGAAAGCAUCUUCGGAUGCAGAGGCGGCAGCCUUCGGUGGCGCGAUAGCGCCAACGUUCUCAACUAUGACAUGCAAAACGCGUGCUCCGUUGAAUGGAGUUUAUCAUA,-2.5
16,GGAUCUUCUCGAUCGAACAAAAAAGACAAAUCUGCCACAAAGCUUGAGAGCAUCUUCGGAUGCAGAGGCGGCAGCCUUCGAUGGCGCGAUAGCGCCAACGUUCUCAACUAUGACACGACAAACGCGUGCUCCAUUGAUUGGAGUUUAUCAUG,≤ -4.2
17,GGAUCUUCUCGAUCGAACAAAAAAGACAAAUCUGCCACAAAGCUUGAGAGCAUCUUCGGAUGCAGAGGCGGCAGCCUUCGGUGGCGCGAUAGCGCCAACGUUCUCAACUAUGACACGCAAAACGCGUGCUCCGUGGAAUGGAGUUUAUCAUG,-3.65
18,GGAUCUUCUCGAUCGAACAAAAAAGACAAAUCUGCCACAAAGCUUGAGAGCAUCUUCGGAUGCAGAGGCGGCAGCCUUCGGUUGCGCGAUAGCGCCAACGUUCUCAACUAUGACACGCAAAACGCGUGCUCCGUUGAAUGGAGUUUAUCAUG,-0.494
19,GGAUCUUCUCGAUCGAACAAAAAAGACAAAUCUGCCACAAAGCUUGAGAGCAUCUUAGGAUGCAGAGGCGGCAGCCUUCGGUGGCGCGAUAGCGCCAUCGUACUCAACUAUGACACGCAUAUCGCGUGCUCCGUUGAAUGGAGUUUAUCAUG,-1.85
